Literature values in patent US10464968B2, “Method for producing a composition for treating a tooth lesion” (CREDENTIS AG, priority 2012, dated 2019).
Where two headings read alike, the source gives them in different places. No end group written: not given here.

## QQRFEWEFEQQ [Example P11-4, self-assembling peptide of 11 amino acids]
Above pH 7.5
  phase state of aqueous solution: isotropic fluid
Below pH 3
  phase state of aqueous solution: nematic gel
Between about pH 5 and about pH 3
  phase state of aqueous solution: flocculate
Between about pH 7.5 and about pH 5
  phase state of aqueous solution: nematic fluid
